Measurements from PMC10397247.
One block for each binder: values may come before it.

What was measured:
APC8191-AA = molecular target: T1, APC8191-AA; assay: two-hybrid library CCmax; conditions: mean of both orientations;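 further: natural log of median RNA to DNA barcode read ratio; higher means stronger binding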
T1 chain: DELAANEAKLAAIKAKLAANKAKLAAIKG

APC5383-AA = molecular target: T2, APC5383-AA; assay: two-hybrid library CCmax; conditions: mean of both orientations;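 further: natural log of median RNA to DNA barcode read ratio; higher means stronger binding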
T2 chain: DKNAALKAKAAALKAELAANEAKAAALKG

APC9096-AA = molecular target: T3, APC9096-AA; assay: two-hybrid library CCmax; conditions: mean of both orientations;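 further: natural log of median RNA to DNA barcode read ratio; higher means stronger binding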
T3 chain: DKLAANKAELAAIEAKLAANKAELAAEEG

APC6108-AA = molecular target: T4, APC6108-AA; assay: two-hybrid library CCmax; conditions: mean of both orientations;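 further: natural log of median RNA to DNA barcode read ratio; higher means stronger binding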
T4 chain: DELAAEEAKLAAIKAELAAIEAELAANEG

APC8910-AA = molecular target: T5, APC8910-AA; assay: two-hybrid library CCmax; conditions: mean of both orientations
T5 chain: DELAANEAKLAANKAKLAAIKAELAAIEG

APC4436-AA = molecular target: T6, APC4436-AA; assay: two-hybrid library CCmax
T6 chain: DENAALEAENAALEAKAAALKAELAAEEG

APC7099-AA = molecular target: T7, APC7099-AA; assay: two-hybrid library CCmax; conditions: mean of both orientations
T7 chain: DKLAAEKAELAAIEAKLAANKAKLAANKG

APC9319-AA = molecular target: T8, APC9319-AA; assay: two-hybrid library CCmax; conditions: mean of both orientations
T8 chain: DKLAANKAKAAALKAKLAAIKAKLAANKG

4H3414-AA = molecular target: T9, 4H3414-AA; assay: two-hybrid library CCmax; conditions: mean of both orientations
T9 chain: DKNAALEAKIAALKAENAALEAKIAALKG

4H3969-AA = molecular target: T10, 4H3969-AA; assay: two-hybrid library CCmax; conditions: mean of both orientations
T10 chain: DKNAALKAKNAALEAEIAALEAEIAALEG

4H341-AA = molecular target: T11, 4H341-AA; assay: two-hybrid library CCmax; conditions: mean of both orientations
T11 chain: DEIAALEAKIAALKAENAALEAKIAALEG

4H3782-AA = molecular target: T12, 4H3782-AA; assay: two-hybrid library CCmax; conditions: mean of both orientations
T12 chain: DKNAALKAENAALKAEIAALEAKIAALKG

4H380-AA = molecular target: T13, 4H380-AA; assay: two-hybrid library CCmax; conditions: mean of both orientations
T13 chain: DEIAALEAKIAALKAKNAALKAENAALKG

4H483-AA = molecular target: T14, 4H483-AA; assay: two-hybrid library CCmax; conditions: mean of both orientations
T14 chain: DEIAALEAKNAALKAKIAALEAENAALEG

4H464-AA = molecular target: T15, 4H464-AA; assay: two-hybrid library CCmax; conditions: mean of both orientations
T15 chain: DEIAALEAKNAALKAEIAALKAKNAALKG

4H3595-AA = molecular target: T16, 4H3595-AA; assay: two-hybrid library CCmax; conditions: mean of both orientations
T16 chain: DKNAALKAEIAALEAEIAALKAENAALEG

4H3939-AA = molecular target: T17, 4H3939-AA; assay: two-hybrid library CCmax; conditions: mean of both orientations
T17 chain: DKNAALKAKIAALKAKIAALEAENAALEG

4H63-AA = molecular target: T18, 4H63-AA; assay: two-hybrid library CCmax; conditions: mean of both orientations
T18 chain: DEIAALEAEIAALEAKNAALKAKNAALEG

4H3129-AA = molecular target: T19, 4H3129-AA; assay: two-hybrid library CCmax
T19 chain: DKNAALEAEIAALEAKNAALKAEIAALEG

4H446-AA = molecular target: T20, 4H446-AA; assay: two-hybrid library CCmax; conditions: mean of both orientations
T20 chain: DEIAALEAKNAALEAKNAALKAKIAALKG

4H3629-AA = molecular target: T21, 4H3629-AA; assay: two-hybrid library CCmax; conditions: mean of both orientations
T21 chain: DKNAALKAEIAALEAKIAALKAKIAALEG

4H797-bN = molecular target: T22, 4H797-bN; assay: two-hybrid library CCNG1
T22 chain: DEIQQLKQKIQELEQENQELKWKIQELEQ

4H967-bN = molecular target: T23, 4H967-bN; assay: two-hybrid library CCNG1
T23 chain: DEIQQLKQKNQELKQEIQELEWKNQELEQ

4H568-bN = molecular target: T24, 4H568-bN; assay: two-hybrid library CCNG1
T24 chain: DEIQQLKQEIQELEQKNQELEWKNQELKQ

4H607-bN = molecular target: T25, 4H607-bN; assay: two-hybrid library CCNG1
T25 chain: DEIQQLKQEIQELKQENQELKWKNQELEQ

4H72-bN = molecular target: T26, 4H72-bN; assay: two-hybrid library CCNG1
T26 chain: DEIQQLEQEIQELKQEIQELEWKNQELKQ

4H687-bN = molecular target: T27, 4H687-bN; assay: two-hybrid library CCNG1
T27 chain: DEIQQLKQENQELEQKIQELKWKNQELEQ

4H918-bN = molecular target: T28, 4H918-bN; assay: two-hybrid library CCNG1
T28 chain: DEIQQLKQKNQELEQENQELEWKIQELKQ

4H883-bN = molecular target: T29, 4H883-bN; assay: two-hybrid library CCNG1
T29 chain: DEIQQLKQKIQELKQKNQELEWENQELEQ

4H462-bN = molecular target: T30, 4H462-bN; assay: two-hybrid library CCNG1
T30 chain: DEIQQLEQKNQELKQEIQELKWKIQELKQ

4H953-bN = molecular target: T31, 4H953-bN; assay: two-hybrid library CCNG1
T31 chain: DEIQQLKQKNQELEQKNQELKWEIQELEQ

interaction score (APC8191-AA): -2.27 | interaction score (APC5383-AA): -1.76 | interaction score (APC9096-AA): -1.96 | interaction score (APC6108-AA): -2.03 | interaction score (APC8910-AA): -1.76 | interaction score (APC4436-AA): -2.09 | interaction score (APC7099-AA): -1.57 | interaction score (APC9319-AA): -1.7
B1: APC4436-AA (peptide)
chain: DENAALEAENAALEAKAAALKAELAAEEG

interaction score (4H3414-AA): 2.24 | interaction score (4H3969-AA): -1.84 | interaction score (4H341-AA): 2.19 | interaction score (4H3782-AA): -1.55 | interaction score (4H380-AA): -1.83 | interaction score (4H483-AA): -2.19 | interaction score (4H464-AA): -1.78 | interaction score (4H3595-AA): -1.39 | interaction score (4H3939-AA): -1.82 | interaction score (4H63-AA): -2.14 | interaction score (4H3129-AA): -1.5 | interaction score (4H446-AA): -2.05 | interaction score (4H3629-AA): -0.839
B2: 4H3129-AA (peptide)
chain: DKNAALEAEIAALEAKNAALKAEIAALEG

interaction score (4H797-bN): -0.297 | interaction score (4H967-bN): -0.954 | interaction score (4H568-bN): 0.685 | interaction score (4H607-bN): 0.42 | interaction score (4H72-bN): -0.825 | interaction score (4H687-bN): -0.147 | interaction score (4H918-bN): -1.19 | interaction score (4H883-bN): -1.4 | interaction score (4H462-bN): -0.578 | interaction score (4H953-bN): -0.25
B3: 4H462-bN (peptide)
chain: DEIQQLEQKNQELKQEIQELKWKIQELKQ
